Measured values as given in US5851983, “Elastase inhibitory polypeptide and process for production thereof by recombinant gene technology” (Teijin Limited, dated 1998).
Like-named read-outs stand apart in the source and are kept apart here. Each block holds one binder with its values, some of them ahead of it. No end group written: not given here.

Experiments:
[1] = target: T1, Polymorphonuclear leukocyte elastase from human sputum (EPC Co.; Funakoshi Yakuhin) (human, UniProt P08246); test: enzyme inhibition with MeO-Suc-Ala-Ala-Pro-Val-pNA, Ki by the Henderson method
Protocol: (§1) To wells of an ELISA 96-well microtiter plate, were added 120 μl of the buffer, 20 μl of a sample solution of (Arg^55-Ala^107) SLPI obtained in Example 25, and 20 μl of the enzyme solution in this order, an the mixture was reacted at 37° C. for 1 hour. Next, 20 μl of the substrate was added to develop at 25° C. Absorption of the developed color was measured at 405 nm. As a control, SLPI was used.

[2] = target: T2, Bovine spleen trypsin (Sigma) (bovine, UniProt P00760); test: enzyme inhibition with Bz-Arg-pNA, Ki by the Henderson method
Protocol: as §1

[3] = target: T3, Bovine spleen chymotrypsin (Sigma) (bovine, UniProt P00766); test: cell-based or functional assay
[4] = target: T4, Porcine spleen elastase (Sigma) (porcine, UniProt P00772); test: cell-based or functional assay
[5] = target: T5, Human cathepsin G (EPC Co., Funakoshi Yakuhin) (human, UniProt P08311); test: cell-based or functional assay
T5 sequence: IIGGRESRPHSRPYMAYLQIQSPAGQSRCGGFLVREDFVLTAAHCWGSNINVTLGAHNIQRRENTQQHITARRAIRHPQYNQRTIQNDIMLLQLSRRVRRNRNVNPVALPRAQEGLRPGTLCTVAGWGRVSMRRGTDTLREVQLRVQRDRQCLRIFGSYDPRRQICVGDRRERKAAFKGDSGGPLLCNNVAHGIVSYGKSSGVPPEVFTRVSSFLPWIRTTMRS

[6] = target: T1, Polymorphonuclear leukocyte elastase …; test: enzyme inhibition with chromogenic substrate, Ki by the Henderson method
Protocol: (§2) To each well of a 96-well ELISA microplate were added 140 μl of the above-mentioned buffer, 20 μl of a test solution, and 20 μl of the enzyme solution, and the mixture was stirred at 37° C. for 30 minutes. Next, 20 μl of the substrate solution was added to the well, the mixture was stirred at 37° C. for one hour to develop same, and the absorbance at 405 nm was measured.
(§3) Moreover, an inhibitory constant Ki of the present (Asn^55-Ala^107) SLPI was calculated on the basis of the above data by a method of Dixon, M. and Webb, E. C. (1979), Enzyme, Longman or a method of Henderson, P. J. F. (1972) Biochem. J., 127, 321–333.

[7] = target: T6, Calf pancreatic trypsin (Sigma) (calf (bovine), UniProt P00760); test: as above
Protocol: as §2, §3

[8] = target: T1, Polymorphonuclear leukocyte elastase …; test: enzyme inhibition with chromogenic substrate, Ki by the Dixon method
Protocol: as §2, §3

[9] = target: T6, Calf pancreatic trypsin (Sigma); test: as above
Protocol: as §2, §3

[10] = target: Porcine pancreatic elastase (Sigma) (porcine, UniProt P00772); test: cell-based or functional assay
Human plasma plasmin = Human plasma plasmin (human, UniProt P00747); test: cell-based or functional assay
Human plasma thrombin = Human plasma thrombin (human, UniProt P00734); test: cell-based or functional assay
Human plasma kallikrein = Human plasma kallikrein (human, UniProt P03952); test: cell-based or functional assay
[11] = target: Calf pancreatic chymotrypsin (Sigma) (calf (bovine), UniProt P00766); test: cell-based or functional assay
[12] = target: T1, Polymorphonuclear leukocyte elastase …; test: enzyme inhibition; method not described
[13] = target: T1, Polymorphonuclear leukocyte elastase …; test: enzyme inhibition with MeO-Suc-Ala-Ala-Pro-Val-pNA, Ki by the Henderson method; remark: listed apart in the source
[14] = target: T3, Bovine spleen chymotrypsin (Sigma); test: cell-based or functional assay; remark: listed apart in the source
[15] = target: T4, Porcine spleen elastase (Sigma); test: cell-based or functional assay; remark: listed apart in the source
[16] = target: T5, Human cathepsin G (EPC Co., Funakoshi …); test: cell-based or functional assay; remark: listed apart in the source
[17] = target: T2, Bovine spleen trypsin (Sigma); test: enzyme inhibition with Bz-Arg-pNA, Ki by the Henderson method; remark: listed apart in the source
Protocol: as §1, with “(Arg^59-Ala^107)” for “(Arg^55-Ala^107)”, “23,” for “25,”

[18] = target: T5, Human cathepsin G (EPC Co., Funakoshi …); test: cell-based or functional assay; remark: listed apart in the source

Ki [1]: 0.09 nM | Ki [2]: 1100 nM | IC50 [3]: 6.8 nM | IC50 [4]: 23000 nM | IC50 [5]: 8 nM
Binder: RRKPGKCPVTYGQCLMLNPPNFCEMDGQCKRDLKCCMGMCGKSCVSPVKA (other) [(Arg^58 -Ala^107) SLPI]

Ki [6]: 0.2 nM | Ki [7]: 20 nM | Ki [8]: 0.03 nM | Ki [9]: 60 nM | concentration of inhibitory protein which exhibits a 50% inhibition [10]: 200 nM | concentration of inhibitory protein which exhibits a 50% inhibition (Human plasma plasmin): > 2 µM | concentration of inhibitory protein which exhibits a 50% inhibition (Human plasma thrombin): > 2 µM | concentration of inhibitory protein which exhibits a 50% inhibition (Human plasma kallikrein): > 2 µM | concentration of inhibitory protein which exhibits a 50% inhibition [11]: 10 nM
B1: (Asn^55 -Ala^107) SLPI fragment polypeptide (other)
chain: NPTRRKPGKCPVTYGQCLMLNPPNFCEMDGQCKRDLKCCMGMCGKSCVSPVKA
modifications: also: intramolecular disulfides in refolded form, pairing not given here

Ki [12]: 0.25 nM | Ki [13]: 0.08 nM | IC50 [14]: 7 nM | IC50 [15]: 13000 nM | IC50 [16]: 5.5 nM | Ki [17]: 33 nM | Ki [1]: 0.08 nM | Ki [2]: 33 nM | IC50 [3]: 7 nM | IC50 [4]: 13000 nM | IC50 [5]: 5.5 nM
B2: Human secretory leukoprotease inhibitor (SLPI) (other)
chain: SGKSFKAGVCPPKKSAQCLRYKKPECQSDWQCPGKKRCCPDTCGIKCLDPVDTPNPTRRKPGKCPVTYGQCLMLNPPNFCEMDGQCKRDLKCCMGMCGKSCVSPVKA

Ki [13]: 0.08 nM | IC50 [14]: 5.8 nM | IC50 [15]: 11000 nM | IC50 [16]: 8 nM | Ki [17]: 1100 nM | IC50 value [18]: 11 nM
Binder: RKPGKCPVTYGQCLMLNPPNFCEMDGQCKRDLKCCMGMCGKSCVSPVKA (other) [(Arg^59 -Ala^107) SLPI]
